From paper PMC8850660 (2022)

B1: purified IRS1 protein (insulin receptor substrate 1) (natural protein)
chain: MASPPDTDGFSDVRKVGYLRKPKSMHKRFFVLRAASEAGGPARLEYYENEKKWRHKSSAPKRSIPLESCFNINKRADSKNKHLVALYTRDEHFAIAADSEAEQDSWYQALLQLHNRAKAHHDGAGGGCGGSCSGSSGVGEAGEDLSYDTGPGPAFKEVWQVILKPKGLGQTKNLIGIYRLCLTSKTISFVKLNSEAAAVVLQLMNIRRCGHSENFFFIEVGRSAVTGPGEFWMQVDDSVVAQNMHETILEAMRAMSDEFRPRSKSQSSSSCSNPISVPLRRHHLNNPPPSQVGLTRRSRTESITATSPASMVGGKPGSFRVRASSDGEGTMSRPASVDGSPVSPSTNRTHAHRHRGSSRLHPPLNHSRSIPMPSSRCSPSATSPVSLSSSSTSGHGSTSDCLFPRRSSASVSGSPSDGGFISSDEYGSSPCDFRSSFRSVTPDSLGHTPPARGEEELSNYICMGGKGASTLAAPNGHYILSRGGNGHRYIPGANLGTSPALPGDEAAGAADLDNRFRKRTHSAGTSPTISHQKTPSQSSVASIEEYTEMMPAAYPPGGGSGGRLPGYRHSAFVPTHSYPEEGLEMHHLERRGGHHRPDTSNLHTDDGYMPMSPGVAPVPSNRKGNGDYMPMSPKSVSAPQQIINPIRRHPQRVDPNGYMMMSPSGSCSPDIGGGSSSSSSISAAPSGSSYGKPWTNGVGGHHTHALPHAKPPVESGGGKLLPCTGDYMNMSPVGDSNTSSPSECYYGPEDPQHKPVLSYYSLPRSFKHTQRPGEPEEGARHQHLRLSSSSGRLRYTATAEDSSSSTSSDSLGGGYCGARPESSLTHPHHHVLQPHLPRKVDTAAQTNSRLARPTRLSLGDPKASTLPRVREQQQQQQSSLHPPEPKSPGEYVNIEFGSGQPGYLAGPATSRSSPSVRCPPQLHPAPREETGSEEYMNMDLGPGRRATWQESGGVELGRIGPAPPGSATVCRPTRSVPNSRGDYMTMQIGCPRQSYVDTSPVAPVSYADMRTGIAAEKASLPRPTGAAPPPSSTASSSASVTPQGATAEQATHSSLLGGPQGPGGMSAFTRVNLSPNHNQSAKVIRADTQGCRRRHSSETFSAPTRAGNTVPFGAGAAVGGSGGGGGGGSEDVKRHSSASFENVWLRPGDLGGVSKESAPVCGAAGGLEKSLNYIDLDLAKEHSQDCPSQQQSLPPPPPHQPLGSNEGNSPRRSSEDLSNYASISFQKQPEDRQ
B2: purified IRS2 protein (insulin receptor substrate 2) (natural protein)
chain: MASAPLPGPPASAGGDGPNLNNNNNNNNHSVRKCGYLRKQKHGHKRFFVLRGPGTGGDEASAAGGSPPQPPRLEYYESEKKWRSKAGAPKRVIALDCCLNINKRADAKHKYLIALYTKDEYFAVAAENEQEQEGWYRALTDLVSEGRSGEGGSGTTGGSCSASLPGVLGGSAGAAGCDDNYGLVTPATAVYREVWQVNLKPKGLGQSKNLTGVYRLCLSARTIGFVKLNCEQPSVTLQLMNIRRCGHSDSFFFIEVGRSAVTGPGELWMQADDSVVAQNIHETILEAMKALKELFEFRPRSKSQSSGSSATHPISVPGARRHHHLVNLPPSQTGLVRRSRTDSLAATPPAAKCTSCRVRTASEGDGGAAGGAGTAGGRPMSVAGSPLSPGPVRAPLSRSHTLSAGCGGRPSKVTLAPAGGALQHSRSMSMPVAHSPPAATSPGSLSSSSGHGSGSYPLPPGSHPHLPHPLHHPQGQRPSSGSASASGSPSDPGFMSLDEYGSSPGDLRAFSSHRSNTPESIAETPPARDGSGGELYGYMSMDRPLSHCGRPYRRVSGDGAQDLDRGLRKRTYSLTTPARQRQVPQPSSASLDEYTLMRATFSGSSGRLCPSFPASSPKVAYNPYPEDYGDIEIGSHKSSSSNLGADDGYMPMTPGAALRSGGPNSCKSDDYMPMSPTSVSAPKQILQPRLAAALPPSGAAVPAPPSGVGRTFPVNGGGYKASSPAESSPEDSGYMRMWCGSKLSMENPDPKLLPNGDYLNMSPSEAGTAGTPPDFSAALRGGSEGLKGIPGHCYSSLPRSYKAPCSCSGDNDQYVLMSSPVGRILEEERLEPQATPGAGTFGAAGGSHTQPHHSAVPSSMRPSAIGGRPEGFLGQRCRAVRPTRLSLEGLQTLPSMQEYPLPTEPKSPGEYINIDFGEAGTRLSPPAPPLLASAASSSSLLSASSPASSLGSGTPGTSSDSRQRSPLSDYMNLDFSSPKSPKPSTRSGDTVGSMDGLLSPEASSPYPPLPPRPSTSPSSLQQPLPPAPGDLYRLPPASAATSQGPTAGSSMSSEPGDNGDYTEMAFGVAATPPQPIVAPPKPEGARVASPTSGLKRLSLMDQVSGVEAFLQVSQPPDPHRGAKVIRADPQGGRRRHSSETFSSTTTVTPVSPSFAHNSKRHNSASVENVSLRKSSEGSSTLGGGDEPPTSPGQAQPLVAVPPVPQARPWNPGQPGALIGCPGGSSSPMRRETSVGFQNGLNYIAIDVRGEQGSLAQSQPQPGDKNSWSRTRSLGGLLGTVGGSGASGVCGGPGTGALPSASTYASIDFLSHHLKEATVVKE

Assays:
[1] = target: T1, unphosphorylated beta subunit of the insulin receptor (IRβ), recombinant (UniProt P06213 763-1382); experiment: SPR; in the presence of C646 (0-100 nM)
[2] = target: T1, unphosphorylated beta subunit of the …; experiment: SPR; in the presence of C646 (0-100 nM); remark: listed apart in the source

T1 sequence (P06213 763-1382): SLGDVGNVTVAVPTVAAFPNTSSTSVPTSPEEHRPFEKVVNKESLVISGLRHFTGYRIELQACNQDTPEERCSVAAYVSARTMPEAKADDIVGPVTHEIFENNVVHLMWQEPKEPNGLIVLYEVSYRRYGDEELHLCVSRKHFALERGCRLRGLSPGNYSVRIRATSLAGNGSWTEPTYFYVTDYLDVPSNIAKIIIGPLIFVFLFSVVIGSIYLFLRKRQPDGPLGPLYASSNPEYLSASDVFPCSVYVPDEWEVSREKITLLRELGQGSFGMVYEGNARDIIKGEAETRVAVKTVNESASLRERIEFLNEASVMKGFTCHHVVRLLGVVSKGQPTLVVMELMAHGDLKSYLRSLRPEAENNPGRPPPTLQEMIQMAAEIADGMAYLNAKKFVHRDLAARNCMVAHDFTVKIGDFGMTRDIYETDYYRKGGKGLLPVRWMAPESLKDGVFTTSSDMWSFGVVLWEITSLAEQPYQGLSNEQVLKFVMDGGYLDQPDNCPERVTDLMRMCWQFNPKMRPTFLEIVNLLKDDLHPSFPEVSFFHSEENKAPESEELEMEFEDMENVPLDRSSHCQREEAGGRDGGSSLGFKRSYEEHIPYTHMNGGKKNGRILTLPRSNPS

| Binder | Kd [1] [pM] | koff [2] [s⁻¹] |
| --- | --- | --- |
| B1 | 0.286 | 3.92e-08 |
| B2 | 7.6 | 1.5e-06 |
